Measurements as given in patent US20220017616A1 (Amgen, published 2022).

Assays:
huTIGIT (PL44403) = target: T1, huTIGIT (PL44403) (human, UniProt Q495A1 22-141); assay: Octet, antibody on anti-huIgG Fc capture tips, huTIGIT as analyte
T1 construct: Soluble protein; also called Human TIGIT (Octet analyte, mono-Fc tag)
T1 sequence: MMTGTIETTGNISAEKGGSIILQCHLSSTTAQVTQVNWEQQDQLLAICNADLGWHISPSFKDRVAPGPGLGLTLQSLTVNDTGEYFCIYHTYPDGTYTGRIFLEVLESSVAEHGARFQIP
Description: (§1) In the case of cynoTIGIT, association was monitored for 5 min and dissociation for 5 min. […] The limit of detection of dissociation is 4e-5 based on a minimum of 5% dissociation over 20 minutes.

human TIGIT [1] = target: T2, human TIGIT (human, UniProt Q495A1 22-244); assay: flow cytometry, 1 µg/mL on activated primary human T cells, fold over isotype control
T2 construct: Cell-surface form; also called huTIGIT
T2 sequence: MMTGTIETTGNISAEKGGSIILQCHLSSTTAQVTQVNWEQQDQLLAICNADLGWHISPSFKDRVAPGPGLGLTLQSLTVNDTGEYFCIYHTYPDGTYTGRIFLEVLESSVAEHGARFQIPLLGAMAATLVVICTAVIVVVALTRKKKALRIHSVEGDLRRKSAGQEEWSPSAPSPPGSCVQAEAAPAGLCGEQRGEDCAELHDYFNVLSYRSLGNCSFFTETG
Description: (§2) The binding of hybridoma supernatants to TIGIT expressed by primary human and cynomolgus monkey cells were tested by flow cytometry. For human primary cell binding assay, purified human T cells (Biological Specialty Corp.) were thawed and suspended at a concentration of 2.5×10⁶ cells/mL. […] After 72 hours, cells were removed, washed and suspended at a concentration of 0.5×10⁶ cells/mL with 10 ng/mL of IL-2 (Pepro Tech). Cells were then incubated for another 48 to 72 hours at 37° C./5% CO₂. For cynomolgus primary cell binding assay, cynomolgus PBMCs (SNBL) were thawed and suspended in a concentration between 4×10⁶ and 5×10⁶ cells/mL. […] After 72 hours, cells were removed, washed and suspended at a concentration of 0.5×10E6 cells/mL with 20 ng/mL of IL-2 (Pepro Tech). Cells were then incubated for another 48 to 72 hours at 37° C./5% CO₂. After the final incubation, cells were prepared for flow cytometry by incubation with normalized hybridoma supernatants, positive control antibodies and isotype control antibodies at 1 μg/mL final concentration. […] Cells were then run on BD FACSCanto II flow cytometer to detect anti-TIGIT antibody binding.

human TIGIT [2] = target: T2, human TIGIT; assay: cell-based or functional assay
cynoTIGIT (PL40461) = target: T3, cynoTIGIT (PL40461) (cynomolgus monkey); assay: Octet, antibody on anti-huIgG Fc capture tips, cynoTIGIT as analyte
T3 construct: Soluble protein; also called Cyno TIGIT (Octet analyte)
Description: as §1

cynomolgus TIGIT = target: T4, cynomolgus TIGIT (cynomolgus monkey); assay: flow cytometry, 1 µg/mL on activated primary cyno PBMCs, fold over isotype control
T4 construct: Cell-surface form; also called cyno TIGIT
Description: as §2

human TIGIT [3] = target: T2, human TIGIT; assay: flow cytometry on CHO-S cells expressing human TIGIT, competitor huCD155-Fc-Alexa 647, at 1.7 µg/mL
Description: (§3) TIGIT-binding hybridoma supernatants were then tested for their ability to block TIGIT from binding ligand. […] The 7-AAD cell viability stain was then added and the cells incubated for a further 15 minutes at 4° C., washed twice and resuspended in FACS buffer. Samples were analyzed using a BD Accuri™ Flow Cytometer and an Intellicyt HyperCyt autoSampler.

human TIGIT [4] = target: T2, human TIGIT; assay: flow cytometry on CHO-S cells expressing human TIGIT, competitor CD112-Fc-Alexa 647, at 1 ug/mL
Description: as §3

human TIGIT [5] = target: T2, human TIGIT; assay: cell-based or functional assay; remark: listed apart in the source
human CD112R = target: T5, human CD112R (human, UniProt Q6DKI7 41-326); assay: flow cytometry, titration on activated primary human T cells
T5 construct: also called huCD112R; PVRIG
T5 sequence: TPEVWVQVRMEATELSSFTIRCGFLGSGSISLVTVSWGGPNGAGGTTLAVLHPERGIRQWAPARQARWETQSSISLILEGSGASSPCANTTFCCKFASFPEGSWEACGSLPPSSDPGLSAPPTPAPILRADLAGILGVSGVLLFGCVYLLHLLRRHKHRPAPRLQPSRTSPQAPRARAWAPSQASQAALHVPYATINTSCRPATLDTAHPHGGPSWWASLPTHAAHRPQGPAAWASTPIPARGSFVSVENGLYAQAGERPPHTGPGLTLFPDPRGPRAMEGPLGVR
Description: (§4) Briefly, cultured human T cells and cyno PBMCs were incubated with lead panel starting at 3 μg/mL for human or 5 μg/mL for cyno and titrated 1 in 3 for the lowest concentration of 0.001 μg/mL for human and 0.002 μg/mL for cyno. […] For analysis, FCS Express was used to obtain Geo Means and Screener was used to determine fold over Isotype control, titration curves and EC50 values.

cynomolgus monkey CD112R = target: T6, cynomolgus monkey CD112R (cynomolgus monkey); assay: flow cytometry, titration on activated cyno PBMCs
T6 construct: also called cyno CD112R
T6 chain: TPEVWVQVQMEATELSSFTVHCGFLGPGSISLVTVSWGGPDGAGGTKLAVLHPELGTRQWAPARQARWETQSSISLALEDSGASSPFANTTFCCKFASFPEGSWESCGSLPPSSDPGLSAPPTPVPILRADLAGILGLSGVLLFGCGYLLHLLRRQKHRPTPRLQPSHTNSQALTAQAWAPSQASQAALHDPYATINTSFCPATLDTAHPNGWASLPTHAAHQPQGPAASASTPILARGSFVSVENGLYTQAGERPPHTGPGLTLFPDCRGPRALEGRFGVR
Description: as §4

[6] = target: T7, biotinylated human CD112R-Fc (human, UniProt Q6DKI7 41-171, limits assumed, biotinylated); assay: flow cytometry on beads, supernatant at 5 µg/mL, competitor Alexa 647 CD112-huFc at 370 ng/mL
T7 construct: also called CD112R receptor (on streptavidin beads)
T7 sequence: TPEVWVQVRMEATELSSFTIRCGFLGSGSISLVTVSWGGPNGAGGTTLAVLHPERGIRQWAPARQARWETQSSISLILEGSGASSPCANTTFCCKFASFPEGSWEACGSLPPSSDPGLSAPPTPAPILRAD
Description: Biotinylated human CD112R-Fc was captured on Streptavidin polystyrene beads (Spherotech, Cat. No. SVP-60-5) in FACS buffer and incubated for 30 minutes at room temperature. Beads were washed twice with FACS buffer, centrifuged to pellet the beads, supernatant removed and resuspended in FACS buffer to remove unbound protein. Biotinylated human CD112R coated beads were added to a 96-well plate. Hybridoma supernatant samples were added such that 5 μg/mL final, beads were resuspended and incubated for 1 hour at room temperature. […] Beads were washed once with FACS buffer, centrifuged to pellet the beads, supernatant removed and resuspended in FACS buffer to remove unbound ligand. Samples were then resuspended in FACS buffer and read on BD Accuri™ Flow Cytometer with an Intellicyt HyperCyt autosampler.

T3 sequence (chain, as listed by the source limits assumed): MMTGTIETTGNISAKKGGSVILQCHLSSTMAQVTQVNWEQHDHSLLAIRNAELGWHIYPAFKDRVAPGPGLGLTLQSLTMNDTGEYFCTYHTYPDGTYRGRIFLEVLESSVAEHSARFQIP
T4 sequence (chain, as listed by the source): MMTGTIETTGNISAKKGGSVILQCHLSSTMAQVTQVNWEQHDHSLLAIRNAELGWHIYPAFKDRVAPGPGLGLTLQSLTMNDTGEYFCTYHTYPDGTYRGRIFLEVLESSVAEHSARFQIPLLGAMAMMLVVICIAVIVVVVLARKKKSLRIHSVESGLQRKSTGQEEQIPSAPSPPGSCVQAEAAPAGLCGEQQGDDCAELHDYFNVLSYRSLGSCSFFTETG

B1: 58A7 (antibody, V domains shown)
VH: QVQLQESGPGLVKPSQTLSLTCTVSGGSISSGGYYWNWIRQHPGKGLEWIGYIYYSGSTFYNPSLKSRVIISVDTSKNQFSLKLSSVTAADTAVYYCARAPRYNWNYGWFDPWGQGTLVTVSS
VL: EIVLTQSPGTLSLSPGERATLSCRASQNVSSTYLAWYQQKPGQAPRLLFYGASSRATGIPDRFSRSGSGTDFTLTISRLEPEDFAVYYCQQYDVSPWTFGQGTKVEIK
notes: Tested as hybridoma supernatant or purified mAb; also called 48B7
For B1, the Kd (huTIGIT (PL44403)) was < 0.1 nM, the “FACS Geomean Fold” value (human TIGIT [1]) was 4.5 fold and the “Potency [nM], Jurkat human TIGIT/IL-2-luciferase RGA, n = 1” value (from here on “Potency [nM] … n = 1”) (human TIGIT [2]) was 7.9 nM. The “Potency [nM], Jurkat human TIGIT/IL-2-luciferase RGA, n = 2” value (shortened to “Potency [nM] … n = 2”) (human TIGIT [2]) was 2.9 nM, the Kd (cynoTIGIT (PL40461)) was 38 nM and the “FACS Geomean Fold” value (cynomolgus TIGIT) was 7.2 fold. For the same binder, the “% inhibition” value (human TIGIT [3]) was 99% and the “% inhibition” value (human TIGIT [4]) was 88%.

B2: 66H9 (antibody, V domains shown)
VH: QVQLQESGPGLVKPSQTLSLTCTVSGGSISSVYFYWNWIRQHPGKGLEWIGYIYYSGGTYYNPSLRSRVTISVDTSKNQFSLKLNSVTAADTAVYYCARGSIAAGGGYFYYNDMDVWGQGTTVTVSS
VL: EIVLTQSPDFQSVTPKEKVAITCRASQSIGSSLHWYQQKPDQSPKPLIKYVSQSFSGVPSRFSGSGSGTDFTLTINSLEAEDAATYYCHQSSSLPLTFGGGTKVEIKR
notes: Fully human XenoMouse antibody, tested as hybridoma supernatant or purified mAb
B2 was tested, and the Kd (huTIGIT (PL44403)) was < 0.1 nM, the “FACS Geomean Fold” value (human TIGIT [1]) was 4.1 fold and the “Potency [nM] … n = 1” value (human TIGIT [2]) was 3.4 nM. The “Potency [nM] … n = 2” value (human TIGIT [2]) was 5.8 nM, the Kd (cynoTIGIT (PL40461)) was 18 nM and the “FACS Geomean Fold” value (cynomolgus TIGIT) was 4 fold. For the same binder, the “% inhibition” value (human TIGIT [3]) was 98% and the “% inhibition” value (human TIGIT [4]) was 85%.

B3: 39D2 (antibody, V domains shown)
VH: QVQLVQSGAEVKKPGASVKVSCKASGYTFTGYYIHWVRQAPGQGLEWMGWISPTSGATGYAQNFQGRVTMTRDTSITTAYMELSRLRSDDTAVYYCARDSNSVLYYYGMDVWGQGTTVTVSS
VL: DIEMTQAPSSLSASVGDRVTITCRASQTIRRYLNWYQQKPGKAPKLLIYAASSLQNGVPSRFSGSVSGTDFTLTISSLQPEDFATYYCQQSYSTPLTFGGGTKVGIRR
notes: as for B2
With B3 the Kd (huTIGIT (PL44403)) was < 0.1 nM, the “FACS Geomean Fold” value (human TIGIT [1]) was 13.7 fold and the “Potency [nM] … n = 1” value (human TIGIT [2]) was 2 nM. The “Potency [nM] … n = 2” value (human TIGIT [2]) was 2.8 nM, the “% inhibition” value (human TIGIT [3]) was 100% and the “% inhibition” value (human TIGIT [4]) was 100%. The “activity in the primary CD8 memory T-cell assay (IFN-γ release, CHO-K1-CD155+ cells)” value (human TIGIT [5]) was 380 pM.

B4: 55G7 (antibody, V domains shown)
VH: QVQLVESGGGVVQPGRSLRLSCAASGFTFSSYGMHWVRQAPGKGLEWVALIWFDESNIYYADSVKGRFTISRDNSKNTLYLQMNSLRAEDTAVYFCARGYDLLTGYYNFDFWGLGTLVTVSA
VL: QAGLTQPPSVSKGLRQTATLTCTGNTNNVGNRGAAWLQQHQGHPPKLLSYRNNNRPSGISERLSASRSGNTASLTITGLQPEDEADYYCSAWDSSLSAWVFGGGTKLTVLG
notes: as for B2
For B4, the Kd (huTIGIT (PL44403)) was < 0.1 nM, the “FACS Geomean Fold” value (human TIGIT [1]) was 4.5 fold and the “Potency [nM] … n = 1” value (human TIGIT [2]) was 4.4 nM. The “Potency [nM] … n = 2” value (human TIGIT [2]) was 14.4 nM, the Kd (cynoTIGIT (PL40461)) was 17 nM and the “FACS Geomean Fold” value (cynomolgus TIGIT) was 12.3 fold. The “% inhibition” value (human TIGIT [3]) was 99% and the “% inhibition” value (human TIGIT [4]) was 86%.

B5: 4G10 (antibody, V domains shown)
VH: QVQLQESGPGLVNPSQTLSLTCIVSGGSIRSGDYYWSWIRQHPGKGLEWIGYIYYSGGTYYNPSLKSRVIISVDTTKNQFSLKLSSMTAADTAVYYCARGSIAARSGYFYFSGLDVWGQGPTVTVSS
VL: EIVLTQTPLSLSVTPGQPASISCKSSQSLLPSDGKTYLSWYLQKPGLPPQVLIYEVSNRFSGVPDRFSGSGSGTDFTLKISRVEAEDVGVYYCMQSIQLPLTFGGGTKVEIKR
notes: as for B2
With B5 the Kd (huTIGIT (PL44403)) was < 0.2 nM, the “FACS Geomean Fold” value (human TIGIT [1]) was 13.5 fold and the “Potency [nM] … n = 1” value (human TIGIT [2]) was 6.7 nM. For the same binder, the “Potency [nM] … n = 2” value (human TIGIT [2]) was 15 nM, the “% inhibition” value (human TIGIT [3]) was 100% and the “% inhibition” value (human TIGIT [4]) was 91%.

B6: 1E1 (antibody, V domains shown)
VH: QVQLVQSGAEVKKPGASVKVSCQASGYTFTDYYIYWVRQAPGQGLEWMGWINPNSGGTNYAQKFQGRVTMTRDTSISTAYIELSRLRSDDTAVYYCAREDNFNGMDVWGQGTTVTVSS
VL: DIQMTQSPSSLSASVGDRVTITCRASQGIRNDLGWYQQKPGKAPKRLIYAASSLQSGVPSRFSGSGSGTEFTLTISSLQPEDFATYYCLQLNSYPLTFGGGTKVEIKR
notes: Fully human XenoMouse antibody, tested as hybridoma supernatant or purified mAb; also called 18C10
With B6 the EC50 (human CD112R) was 0.02 µg/mL, the EC50 (cynomolgus monkey CD112R) was 0.0087 µg/mL and the “% of CD112 ligand prevented from binding” value [6] was ≥ 90%.

B7: 24F1 (antibody, V domains shown)
VH: EVQLVESGGGLVQPGGSLRLSCAASGFTFSRDDMHWVRQATGKGLEWVAGIDNAGDTYYPGSVKGRFTISRENAKNSLYLQMNSLRAGDTAIYYCAREGQWPYGMDVWGQGTTVTVSS
VL: DIQMTQSPSSLSASVGDRVTITCRASQGIRNDLGWYQQKPGKAPKRLIYSASSLQSGVSSRFSGSGSGTEFTLTISSLQPEDFATYYCLQSNSYPLTFGGGTKVEIKR
notes: Fully human XenoMouse antibody, tested as hybridoma supernatant
B7 was tested, and the EC50 (human CD112R) was 0.034 µg/mL, the EC50 (cynomolgus monkey CD112R) was 0.0334 µg/mL and the “% of CD112 ligand prevented from binding” value [6] was ≥ 90%.

B8: 29E10 (antibody, V domains shown)
VH: EVQLVESGGGLVQPGGSLRLSCAASGFTFRNYDMHWVRQVPGKGLEWVSDIGNSGETYYLGSVKGRFTISRENAKNSLYLQMNSLRAGDTAVYYCVREEFGYGMDVWGQGTTVTVSS
VL: DIQMTQSPSSLSASVGDRVTITCRASQGIRNDLGWYQQKPGKAPKRLIYAASSLQSGVPSRFSGSGSGTEFTLTISSLQPEDFATYYCLQHNSYPLTFGGGTKVEIKR
notes: as for B7
For B8, the EC50 (human CD112R) was 0.033 µg/mL, the EC50 (cynomolgus monkey CD112R) was 0.0322 µg/mL and the “% of CD112 ligand prevented from binding” value [6] was ≥ 90%.

B9: 27G12 (antibody, V domains shown)
VH: QVQLVQSGGEVKKPGASVKVSCKASGFTFTSYDINWVRQATGQGLEWMGWMNHYSGDSDYAQKLQGRVIITRNTSITTAYMELSSLRSEDTAVYYCGRERFPFGMDVWGQGTTVTVSS
VL: DIQMTHSPSSLSASIGDRVTITCRASQGIRNELGWYQKKPGKAPKRLIYSASSLQSGVPSRFSGSGSGTEFTLTISSLQPEDFATYYCLQHNTYPLTFGGGTKVEIK
notes: as for B7
For B9, the EC50 (human CD112R) was 0.089 µg/mL, the EC50 (cynomolgus monkey CD112R) was 0.174 µg/mL and the “% of CD112 ligand prevented from binding” value [6] was ≥ 90%.

B10: 31B3 (antibody, V domains shown)
VH: QVQLVESGGGVVQPGRSLRLSCAASGFTFSYYGMHWVRQAPGKGLEWVALISYDGNNKYYVDSVRGRFTISRDNSKNTLSLQMNSLRAEDTAVYYCAREIFGESYYYGMDVWGQGTTVTVSS
VL: EIVMTQSPATLSVSPGERATLSCRASQSISRNLAWYQQKPGQAPRLLIYGASIRATVIPARFSGSGSGTEFTLTISSLQSEDFAIYYCQQYNNWMCSFGQGTKLEIK
notes: as for B7
In the case of B10, the EC50 (human CD112R) is reported as 0.127 µg/mL, the EC50 (cynomolgus monkey CD112R) is reported as 0.898 µg/mL and the “% of CD112 ligand prevented from binding” value [6] is reported as ≥ 90%.

B11: 11E4 (antibody, V domains shown)
VH: QVQLQESGPGLVKPSQTLSLTCTVSGGSISSGGYYWSWIRQHPGKGLEWIGYIYYSGSTSYNPSLKSRVTISVDTSKNQFSLKLSSVTAADTAVYYCARDLDYDILTGYPRWDYGMDVWGQGTTVTVSS
VL: EIVMTQSPATLSVSPGERATLSCRASQSVSNNLAWYQQKPGQAPRLLIYSESTRATGIPDRFSGSGSGTEFTLTISSLQSEDFAVYYCQQHNNWPRTFGQGTKVEIKR
notes: as for B7
In the case of B11, the “% of CD112 ligand prevented from binding” value [6] is reported as ≥ 90%.
